According to US6287865:

Target: Avr2 elicitor molecule of Cladosporium fulvum (Cladosporium fulvum)

Binder | resistance of progeny of resistant transformants to matched races of C. fulvum carrying or lacking Avr-2 (race 5,9 compared with race 2,5,9)
Cf-2.1 protein (polypeptide encoded by the tomato Cf-2.1 gene) (receptor) STEEATALLKWKATFKNQNNSFLASWIPSSNACKDWYGVVCFNGRVNTLNITNASVIGTLYAFPFSSLPSLENLDLSKNNIYGTIPPEIGNLTNLVYLDLNNNQISGTIPPQIGLLAKLQIIRIFHNQLNGFIPKEIGYLRSLTKLSLGINFLSGSIPASVGNLNNLSFLYLYNNQLSGSIPEEISYLRSLTELDLSDNALNGSIPASLGNMNNLSFLFLYGNQLSGSIPEEICYLRSLTYLDLSENALNGSIPASLGNLNNLSFLFLYGNQLSGSIPEEIGYLRSLNVLGLSENALNGSIPASLGNLKNLSRLNLVNNQLSGSIPASLGNLNNLSMLYLYNNQLSGSIPASLGNLNNLSMLYLYNNQLSGSIPASLGNLNNLSRLYLYNNQLSGSIPEEIGYLSSLTYLDLSNNSINGFIPASFGNMSNLAFLFLYENQLASSVPEEIGYLRSLNVLDLSENALNGSIPASFGNLNNLSRLNLVNNQLSGSIPEEIGYLRSLNVLDLSENALNGSIPASFGNLNNLSRLNLVNNQLSGSIPEEIGYLRSLNDLGLSENALNGSIPASLGNLNNLSMLYLYNNQLSGSIPEEIGYLSSLTYLSLGNNSLNGLIPASFANMRNLQALILNDNNLIGEIPSSVCNLTSLEVLYMPRNNLKGKVPQCLGNISNLQVLSMSSNSFSGELPSSISNLTSLQILDFGRNNLEGAIPQCFGNISSLEVFDMQNNKLSGTLPTNFSIGCSLISLNLHGNELEDEIPRSLDNCKKLQVLDLGDNQLNDTFPMWLGTLPELRVLRLTSNKLHGPIRSSRAEIMFPDLRIIDLSRNAFSQDLPTSLFEHLKGMRTVDKTMEEPSYESYYDDSVVVVTKGLELEIVRILSLYTVIDLSSNKFEGHIPSVLGDLIAIRILNVSHNALQGYIPSSLGSLSILESLDLSFNQLSGEIPQQLASLTFLEFLNLSHNYLQGCIPQGPQFRTFESNSYEGNDGLRGYPVSKGCGKDPVSEKNYTVSALEDQESNSEFFNDFWKAALMGYGSGLCIGISMIYILISTGNLRWLARIIEKLEHKIIMQRRKKQRGQRNYRRRNNHF | 75%
Cf-2.2 protein (polypeptide encoded by the tomato Cf-2.2 gene) (receptor) STEEATALLKWKATFKNQNNSFLASWIPSSNACKDWYGVVCFNGRVNTLNITNASVIGTLYAFPFSSLPSLENLDLSKNNIYGTIPPEIGNLTNLVYLDLNNNQISGTIPPQIGLLAKLQIIRIFHNQLNGFIPKEIGYLRSLTKLSLGINFLSGSIPASVGNLNNLSFLYLYNNQLSGSIPEEISYLRSLTELDLSDNALNGSIPASLGNMNNLSFLFLYGNQLSGSIPEEICYLRSLTYLDLSENALNGSIPASLGNLNNLSFLFLYGNQLSGSIPEEIGYLRSLNVLGLSENALNGSIPASLGNLKNLSRLNLVNNQLSGSIPASLGNLNNLSMLYLYNNQLSGSIPASLGNLNNLSMLYLYNNQLSGSIPASLGNLNNLSRLYLYNNQLSGSIPEEIGYLSSLTYLDLSNNSINGFIPASFGNMSNLAFLFLYENQLASSVPEEIGYLRSLNVLDLSENALNGSIPASFGNLNNLSRLNLVNNQLSGSIPEEIGYLRSLNVLDLSENALNGSIPASFGNLNNLSRLNLVNNQLSGSIPEEIGYLRSLNDLGLSENALNGSIPASLGNLNNLSMLYLYNNQLSGSIPEEIGYLSSLTYLSLGNNSLNGLIPASFGNMRNLQALILNDNNLIGEIPSSVCNLTSLEVLYMPRNNLKGKVPQCLGNISNLQVLSMSSNSFSGELPSSISNLTSLQILDFGRNNLEGAIPQCFGNISSLEVFDMQNNKLSGTLPTNFSIGCSLISLNLHGNELEDEIPRSLDNCKKLQVLDLGDNQLNDTFPMWLGTLPELRVLRLTSNKLHGPIRSSRAEIMFPDLRIIDLSRNAFSQDLPTSLFEHLKGMRTVDKTMEEPSYESYYDDSVVVVTKGLELEIVRILSLYTVIDLSSNKFEGHIPSVLGDLIAIRILNVSHNALQGYIPSSLGSLSILESLDLSFNQLSGEIPQQLASLTFLEFLNLSHNYLQGCIPQGPQFRTFESNSYEGNDGLRGYPVSKGCGKDPVSEKNYTVSALEDQESNSEFFNDFWKAALMGYGSGLCIGISIIYILISTGNLRWLARIIEELEHKIIMQRRKKQRGQRNYRRRNNRF | 75%
